According to paper PMC9715718 (Nature Communications, 2022):

Key:
[1] = target: the molecule itself; assay: SEC-MALS; Superdex 200 Increase column in SEC buffer, 40-150 µg of protein applied
PqsE-E187R = target: T1, PqsE-E187R (Pseudomonas aeruginosa, UniProt P20581, E187R); assay: MST; PqsE diluted 1:1 from 10 µM, RhlR-ATTO488 at 20 nM; 50 mM Tris pH 8.0, 300 mM NaCl, 5% glycerol, 50 µM mBTL, 0.05% Tween; 25 °C; conditions: both partners purified
T1 construct: source: E. coli BL21 CodonPlus (DE3), purified; not shown: His6, N-terminal, cleaved

B1: PqsE (purified, affinity tag removed) (enzyme)
chain: MLRLSAPGQLDDDLCLLGDVQVPVFLLRLGEASWALVEGGISRDAELVWADLCRWVADPSQVHYWLITHKHYDHCGLLPYLCPRLPNVQVLASERTCQAWKSESAVRVVERLNRQLLRAEQRLPEACAWDALPVRAVADGEWLELGPRHRLQVIEAHGHSDDHVVFYDVRRRRLFCGDALGEFDEAEGVWRPLVFDDMEAYLESLERLQRLPTLLQLIPGHGGLLRGRLAADGAESAYTECLRLCRRLLWRQSMGESLDELSEELHRAWGGQSVDFLPGELHLGSMRRMLEILSRQALPLD
notes: not shown: His6, N-terminal, cleaved
- stoichiometry N [1]: 2

B2: RhlR purified in the presence of mBTL (natural protein)
chain: MRNDGGFLLWWDGLRSEMQPIHDSQGVFAVLEKEVRRLGFDYYAYGVRHTIPFTRPKTEVHGTYPKAWLERYQMQNYGAVDPAILNGLRSSEMVVWSDSLFDQSRMLWNEARDWGLCVGATLPIRAPNNLLSVLSVARDQQNISSFEREEIRLRLRCMIELLTQKLTDLEHPMLMSNPVCLSHREREILQWTADGKSSGEIAIILSISESTVNFHHKNIQKKFDAPNKTLAAAYAAALGLI
notes: RhlR, LuxR-type transcription factor of P. aeruginosa PA14/PAO1, 241 residues; also called RhlR:mBTL; non-tagged RhlR; source: E. coli BL21 CodonPlus (DE3), purified in the presence of mBTL
- stoichiometry N [1]: 2

B3: RhlR-ATTO488 (natural protein)
chain: B2 chain
modifications: conjugated with ATTO488-maleimid (site not stated)
notes: RhlR, LuxR-type transcription factor of P. aeruginosa PA14/PAO1, 241 residues; m4 after labelling; 'non-tagged'; holds mBTL
- Kd (PqsE-E187R): 13.8 ± 3.9 µM
